Sequences and labels used below:
B1: FleN, full length (residues 1 to 280), wild type (natural protein, Pseudomonas aeruginosa, UniProt G3XD64 1-280, looked up)
chain: MKQMGSMHPVQVIAVTGGKGGVGKTNVSVNLALALADLGRRVMLLDADLGLANVDVLLGLTPKRTLADVIEGRCELRDVLLLGPGGVRIVPAASGTQSMVHLSPMQHAGLIQAFSDISDNLDVLVVDTAAGIGDSVVSFVRAAQEVLLVVCDEPTSITDAYALIKLLNRDHGMTRFRVLANMAHSPQEGRNLFAKLTKVTDRFLDVALQYVGVIPYDESVRKAVQKQRAVYEAFPRSKASLAFKAVAQKVDSWPLPANPRGHLEFFVERLVQHPATGSAV
B2: FleN L263W (natural protein, Pseudomonas aeruginosa, UniProt G3XD64 1-280, looked up)
chain: B1 chain with L263W
B3: FleN D48A (natural protein, Pseudomonas aeruginosa, UniProt G3XD64 1-280, looked up)
chain: B1 chain with D48A
B4: FleQ AAA+ ATPase (central) domain, residues 142 to 395 (domain or fragment)
chain: not shown
modifications: biotin (EZ-Link NHS-PEG4-Biotin) for the BLI assay
B5: FleN truncated by 25 amino acids at the C terminus, residues 1 to 255 (domain or fragment, Pseudomonas aeruginosa, UniProt G3XD64 1-255, looked up)
chain: MKQMGSMHPVQVIAVTGGKGGVGKTNVSVNLALALADLGRRVMLLDADLGLANVDVLLGLTPKRTLADVIEGRCELRDVLLLGPGGVRIVPAASGTQSMVHLSPMQHAGLIQAFSDISDNLDVLVVDTAAGIGDSVVSFVRAAQEVLLVVCDEPTSITDAYALIKLLNRDHGMTRFRVLANMAHSPQEGRNLFAKLTKVTDRFLDVALQYVGVIPYDESVRKAVQKQRAVYEAFPRSKASLAFKAVAQKVDSWPL

Substitutions are numbered along the chain they refer to. Numbers in names are those of the source.

The data set “crystal structure” concerns the molecule itself. The data set can be described thus: crystal structure.
Data set [1] deals with FleQ, full length (FleQFL) (Pseudomonas aeruginosa, UniProt G3XCV0 1-490, biotin (EZ-Link NHS-PEG4-Biotin) for the BLI assay). The data set can be described thus: BLI. A general note: Biolayer interferometry detects binding as a change in optical thickness at a sensor tip.
Sequence of FleQ, full length (FleQFL) (G3XCV0 whole entry): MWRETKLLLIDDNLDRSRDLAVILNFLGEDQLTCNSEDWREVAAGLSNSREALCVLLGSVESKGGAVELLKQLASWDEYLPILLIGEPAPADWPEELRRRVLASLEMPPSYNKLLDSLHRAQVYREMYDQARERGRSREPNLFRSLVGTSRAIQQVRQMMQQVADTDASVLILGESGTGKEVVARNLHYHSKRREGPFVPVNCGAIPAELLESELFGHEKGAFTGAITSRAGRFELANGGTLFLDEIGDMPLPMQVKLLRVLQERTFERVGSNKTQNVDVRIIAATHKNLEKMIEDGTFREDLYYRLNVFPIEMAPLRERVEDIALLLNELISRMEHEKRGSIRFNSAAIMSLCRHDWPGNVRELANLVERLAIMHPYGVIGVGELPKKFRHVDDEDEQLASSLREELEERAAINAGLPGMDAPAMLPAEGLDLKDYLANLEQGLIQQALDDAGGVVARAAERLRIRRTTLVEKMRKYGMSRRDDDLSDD
The data set “cross-linking” concerns the molecule itself. The data set can be described thus: cross-linking.
The target in data set [2] is B1. The data set can be described thus: BLI.

5 molecules from paper PMC8528422 (Science Advances, 2021) can be followed below.

In general, stoichiometry N refers to a count of units in the complex or per binding partner. Usually Kd stands for the constant that tells how readily two partners part at equilibrium. Lower therefore signals tighter binding. Regarding B1, the “stoichiometry N” value in the data set “crystal structure” is 2. This molecule also yielded a Kd in data set [1] of 340 nM. As to B2, the “stoichiometry N” value in “cross-linking” turned out to be 2. The “fold change of KD against WT FleN” value in data set [1] came to 100 fold. As for B3, in data set [1], the binding result is “binds”.

B4: the Kd in data set [2] came out at 260 nM. Regarding B5, in the data set “cross-linking”, the “stoichiometry N” value was found to be 2.
